Data: patent US20250263469A1

Molecular target: SARS-CoV-2 Spike on pseudotyped virus (PsV) (SARS-CoV-2) (UniProt P0DTC2)
Assay: cell-based or functional assay

| Substance | Median IC50, SARS-CoV-2 PsV neutralization |
| --- | --- |
| REGN10987 (recombinant mAb, reference IgG) (antibody) | 0.03 µg/mL |
| REGN10933 (recombinant mAb, reference IgG) (antibody) | 0.0044 µg/mL |
